Experimental data as given in publication PMC5886089, “Biophysical and functional characterization of hippocalcin mutants responsible for human dystonia” (Human Molecular Genetics, 2017).

Molecular target: the molecule itself
Assay: cross-linking; in vitro cross-link (BS3 or DSP) of purified protein in the presence of calcium; densitometry after DSP

Row | Protein | binding result
1 | hippocalcin(A190T) (natural protein, human hippocalcin (HPCA) with the dystonia-causing mutation A190T, in pGEX-6P1; unmyristoylated; Mutation found homozygous in DYT2 dystonia patients; also called HPCA A190T; A190T mutant; source: E. coli BL21(DE3) STAR, purified (GST resin, PreScission cleavage, Superdex 200); not shown: GST, N-terminal, cleaved) not shown | binds
2 | hippocalcin(T71N) (natural protein, human hippocalcin (HPCA) with the dystonia-causing mutation T71N, in pGEX-6P1; unmyristoylated; Mutation found homozygous in DYT2 dystonia patients; also called HPCA T71N; T71N mutant; source: E. coli BL21(DE3) STAR, purified (GST resin, PreScission cleavage, Superdex 200); not shown: GST, N-terminal, cleaved) not shown | binds
